Assays:
SMYD2-F184A = SMYD2-F184A (human, UniProt Q9NRG4 1-433, F184A); experiment: ITC; one-site model
[1] = biological target: T1, Full-length human SMYD2 (residues 1-433), wild type (human, UniProt Q9NRG4 1-433); experiment: ITC; two-site model, KD1
[2] = biological target: T1, Full-length human SMYD2 (residues …); experiment: ITC; one-site model (n = 2.01)
[3] = biological target: T1, Full-length human SMYD2 (residues …); experiment: ITC; two-site model, KD2 (second site)

T1 sequence (Q9NRG4 whole entry, the tested form may be a part): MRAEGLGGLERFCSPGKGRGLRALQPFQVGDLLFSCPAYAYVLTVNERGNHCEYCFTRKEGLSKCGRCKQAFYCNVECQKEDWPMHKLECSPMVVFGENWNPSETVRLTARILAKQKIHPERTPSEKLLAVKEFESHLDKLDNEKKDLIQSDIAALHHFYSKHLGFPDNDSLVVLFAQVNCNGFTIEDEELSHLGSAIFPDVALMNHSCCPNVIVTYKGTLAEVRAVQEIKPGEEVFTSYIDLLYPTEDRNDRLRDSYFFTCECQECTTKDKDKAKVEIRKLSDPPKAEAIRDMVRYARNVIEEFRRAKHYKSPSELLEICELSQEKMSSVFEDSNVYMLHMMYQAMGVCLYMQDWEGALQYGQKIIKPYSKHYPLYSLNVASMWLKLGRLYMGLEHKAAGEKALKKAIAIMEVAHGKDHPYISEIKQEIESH
Chain of SMYD2-F184A (Q9NRG4 whole entry F184A, the tested form may be a part): as the sequence (Q9NRG4 whole entry, the tested form may be a part) above, with F184A counted along it

Kd (SMYD2-F184A): 41.7 µM
Kd [1]: 17.8 µM
Kd [2]: 17.7 µM
Kd [3]: 18.2 µM
Binder: RMKLTLKGGAAVD [PARP1 peptide (13-residue synthetic peptide, human PARP1 residues 522-534)]

Source: article doi:10.1101/2024.12.03.626679 (2024)
